Measured values reported in patent publication US9822156B2, “Amyloid beta expression constructs and uses therefor” (Whitehead Institute for Biomedical Research, priority 2014, dated 2017).

Columns and labels:
[1] = system: Rat embryonic cortical neurons; assay: […] ATP viability assay in neurons infected with lentiviral poly-Aβ constructs; assay type: cell-based; conditions: three weeks post doxycycline-induction (2 μg/ml)
Source text: Rat embryonic cortical neurons were infected with lentiviral poly-Aβ expression constructs to model poly-Aβ toxicity. Tetracycline (doxycycline)-inducible poly-Aβ (Aβ42-4X, Aβ42-6X, Aβ40-4X, Aβ40-6X, and Aβ42-Arctic-4X) viral constructs described in Example 5 were used to express poly-Aβ constructs in rat cortical neurons. In each expression construct, the poly-Aβ coding sequence is linked to an N-terminal insulin signal peptide. The poly-Aβ expression plasmids were packaged in lentiviral particles, which were generated by 293T cells as described in Example 3.
Rat cortical neurons were enriched from cortices dissected out of embryonic (E18) rat brains and enriched in adherent monolayer culture as described in Example 3. Purified lentiviral preparations at different MOI were used to infect these cortical neurons to express poly-Aβ transgenes. Three days post-infection, expression of poly-Aβ was induced by adding doxycycline (2 μg/ml) to the infected cultures.

293T cells = assay: TOXILIGHT cytotoxicity assay in stable doxycycline-inducible poly-Aβ 293T cell lines; assay type: cell-based; conditions: 72-96 hours following doxycycline induction
Source text: Similar to the poly-Aβ (Aβ40 or Aβ42_1X/4X/6X/8X) expression constructs in yeast (see Example 1), a poly-Aβ toxicity model was developed in mammalian cells. Stable cell lines with chromosomally-integrated tetracycline (doxycycline)-inducible […] transgenes (Aβ42-4X, Aβ42-6X, Aβ40-4X, Aβ40-6X and Aβ42-Arctic-4X) linked to an N-terminal insulin signal peptide were generated (FIGS. 13A-13B). These expression constructs were generated using the pLix402 lentiviral plasmid (FIG. 12). The poly-Aβ constructs were individually transfected into 293T cells along with the lentiviral packaging plasmid psPAX and the viral envelope-expressing plasmid mMD2.G using LIPOFECTAMINE® 2000 (Invitrogen) transfection reagent to generate lentivirus containing the poly-Aβ transgene. The virus was harvested from the supernatant of transfected 293T cells 2 and 3 days post-transfection and subsequently purified and concentrated using the LENTI-X™ Maxi Purification kit (Clontech) according to the manufacturer's instructions.
To generate stable cells harboring the expression transgene for the poly-Aβ constructs, 293T cells were infected using POLYBRENE® infection reagent (Sigma Aldrich), which is used to introduce retroviral vectors into mammalian cells. Infected cells were then selected using puromycin (2-10 μg/ml). Infected cells harboring the transgene survive this selection pressure whereas the control cells without the transgene die in 2-3 days. Aliquots of the selected cells were frozen in liquid nitrogen or maintained and propagated for further applications.
Expression of Aβ peptide from these stable cell lines was measured in the culture supernatant 72-96 hours following doxycycline induction (FIG. 13D). Toxicity was measured 72-96 hours following doxycycline induction using a TOXILIGHT™ cytotoxicity assay (Lonza) as described in Example 2.

Molecule	cytotoxicity (viability by ATP levels) [1]	Aβ peptide-mediated cytotoxic effect (adenylate kinase release), rank order (293T cells)
Aβ42-4X: doxycycline-inducible construct, insulin signal peptide and four copies of Aβ42, SEQ ID NO:35	profound cytotoxicity compared to Aβ40-4X	Aβ42-6X≧Aβ42-Arctic-4X≧Aβ42-4X≧AB40-6X≧Aβ40-4X
Aβ42-Arctic-4X: doxycycline-inducible construct, insulin signal peptide and four copies of Aβ42 E22G, SEQ ID NO:37 (protein) MALWMRLLPLLALLALWGPDPAAADAEFRHDSGYEVHHQKLVFFAGDVGSNKGAIIGLMVGGVVIARRDAEFRHDSGYEVHHQKLVFFAGDVGSNKGAIIGLMVGGVVIAKRDAEFRHDSGYEVHHQKLVFFAGDVGSNKGAIIGLMVGGVVIARRDAEFRHDSGYEVHHQKLVFFAGDVGSNKGAIIGLMVGGVVIA	profound cytotoxicity compared to Aβ40-4X	Aβ42-6X≧Aβ42-Arctic-4X≧Aβ42-4X≧AB40-6X≧Aβ40-4X
